B1: ERY1-OVA (ovalbumin chemically conjugated with ERY1 peptide through SMCC) (other)
chain: GSIGAASMEFCFDVFKELKVHHANENIFYCPIAIMSALAMVYLGAKDSTRTQINKVVRFDKLPGFGDSIEAQCGTSVNVHSSLRDILNQITKPNDVYSFSLASRLYAEERYPILPEYLQCVKELYRGGLEPINFQTAADQARELINSWVESQTNGIIRNVLQPSSVDSQTAMVLVNAIVFKGLWEKAFKDEDTQAMPFRVTEQESKPVQMMYQIGLFRVASMASEKMKILELPFASGTMSMLVLLPDEVSGLEQLESIINFEKLTEWTSSNVMEERKIKVYLPRMKMEEKYNLTSVLMAMGITDVFSSSANLSGISSAESLKISQAVHAAHAEINEAGREVVGSAEAGVDAASVSEEFRADHPFLFCIKHIATNAVLFFGRCVSP
peptide: WMVLPWLPGTLDGGSGCRG
modifications: C-terminal amide; cysteine side chain conjugated via SMCC to lysines of OVA; lysine side chains carry SMCC linked to the cysteine of the ERY1 peptide
notes: also called ERY1-conjugated antigen

Assays:
[1] = molecular target: T1, mouse glycophorin-A on mouse erythrocytes (mouse, UniProt P14220 1-168); assay: photo-crosslinking of biotinylated peptide to whole mouse erythrocytes, streptavidin pull-down and streptavidin Western blot
Procedure: When whole erythrocytes were incubated with ERY1 peptide functionalized with biotin and a photoactivatable crosslinker, a single 28 kDa protein was conjugated with the peptide-biotin complex, as detected by a streptavidin Western blot (FIG. 2A). The reaction lysate was extensively washed and purified using streptavidin magnetic beads to ensure no unlabeled proteins from the erythrocyte lysate remained. […] The mismatch peptide, […] (SEQ ID NO:2), was designed to contain the same amino acid residues as ERY1, and to match its hydrophobicity topography. […] Anti-GYPA Western blotting of the same purified samples from the crosslinking reaction confirmed that the candidate biotinylated protein was indeed GYPA (FIG. 2B).
In brief, peptides were solubilized in PBS/DMF and reacted with 1.05 equivalents of Mts-atf-biotin overnight at 4° C. Following clarification of the reaction by centrifugation, biotinylated peptide was incubated with erythrocytes at in PBSA-50 for 1 h at 37° C., cells were washed twice in fresh PBS, and were UV irradiated at 365 nm for 8 min at room temperature. Cells were lysed by sonication and the lysate was purified using streptavidin-coated magnetic beads (Invitrogen). The eluate was run on an SDS-PAGE and transferred to a PVDF membrane, and immunoblotted with streptavidin-HRP(R&D Systems) or anti-mouse GYPA.

[2] = molecular target: T1, mouse glycophorin-A on mouse …; assay: equilibrium binding to mouse erythrocytes, flow cytometry, one-site binding fit
[3] = molecular target: T1, mouse glycophorin-A on mouse …; assay: in vivo, geometric mean fluorescence of circulating erythrocytes by flow cytometry, one-phase exponential decay
Procedure: Consistent with glycophorin-A association, ERY1-OVA bound to erythrocytes (CD45⁻) but not to leukocytes (CD45⁺). ERY1-OVA binding was unbiased as to the apoptotic state of the erythrocytes, binding strongly to both annexin-V⁺ and annexin-V⁻ CD45⁻ populations (FIG. 9b).
150 μg of ERY1-OVA or OVA in 0.9% saline (B. Braun) in a volume of 100 μL was injected intravenously into the tail of 8-12 week old female C57BL/6 mice while under anesthesia with isoflurane. Care was taken to ensure mice were kept at 37 C with a heating pad during experimentation. At predetermined time points, 5 μL of blood was taken from a small incision on the tail, diluted 100-fold into 10 mM EDTA in PBS, washed three times with PBS with 10 mg/mL BSA, and analyzed for OVA content by flow cytometry and ELISA. OVA was quantified by sandwich ELISA, using a mouse monoclonal anti-OVA antibody (Sigma) for capture, a polyclonal rabbit anti-OVA antibody (AbD SEROTEC) for detection, a goat anti-rabbit-IgG-HRP antibody (BioRad) for final detection, followed by TMB substrate (GE Life Sciences). Hematological characterization was performed on an ADVIVA 2120 Hematology System (Siemens). Erythrocyte-bound ERY1-GST was detected by incubating labeled cells with goat anti-GST (GE Healthcare Life Sciences), followed by incubation with AlexaFluor488 donkey anti-goat (Invitrogen), and analyzed by flow cytometry. […]

Row | Binder | binding result [1] | Kd [2] [nM] | cell-surface half-life [3] [h]
1 | H-PLLTVGMDLWPWGGSGCRG-NH2 (not fully specified (residue 17); also: conjugated to Mts-Atf-biotin, Same amino acids as ERY1, scrambled) [mismatch peptide, soluble, biotinylated (H2N-PLLTVGMDLWPWGGSGCRG-CONH2 conjugated to Mts-Atf-biotin)] | no binding |  | 
2 | B1 |  | 6.2 | 17.2

From patent publication US20120178139A1 (published 2012)
